The values that follow come from US20100298541A1 (published 2010).

Assay [1] addresses T1, TRAIL-R2/Fc fusion protein (R & D Systems) (UniProt O14763 54-182, limits assumed).
T1 construct: not shown: Fc part of the bought fusion; captured with anti-human IgG Fc antibody
Kind of assay: biosensor, TRAIL-R2-Fc fusion protein immobilized; mono-, bi- and tetravalent D1 constructs injected. The method, then:
FIG. 19. Binding affinity of Tn3 monomers and multimers. Depicted in this panel are sensorgrams from a Biosensor binding experiment using mono-, bi- and tetravalent 1C12 and D1 Tn3 constructs. TRAIL-R2-Fc fusion protein was immobilized on a sensor chip while sample proteins were injected over the chip. “tetra” refers to the tetravalent Cκ/IGHG1 fusion constructs.
(§1) A qualitative comparison of binding by monomeric 1C12, 1C12-Fc and 1C12-Cκ/1C12-IGHG1 proteins was performed by injecting samples of each of these proteins over a TRAIL-R2 chip on an Attana biosensor instrument.

Assay [2] concerns the target SYNAGIS®. The assay is described as follows: SPR (BIAcore 3000), SYNAGIS® immobilized, both injected at 1 µM. For orientation: Surface plasmon resonance follows binding to a sensor surface in real time, without labels.
Assay [3] has as its target T1, TRAIL-R2/Fc fusion protein (R & D …). Kind of assay: Attana biosensor, TRAIL-R2 chip. The method, then: as §1
For assay [4] the target is unchanged. The assay is described as follows: SPR (BIAcore), TRAIL-R2/Fc captured on goat anti-human-Fc IgG, 5E5 injected; from kon and koff. The method, then: Goat anti-human-Fc IgG was immobilized at a density of ˜7700 RUs onto a flow cell of a CM5 Biacore sensor chip surfaces using a standard amino coupling protocol (BIAcore, Inc.). Separately, a blank surface was also prepared on the same chip using the identical coupling protocol, minus the protein. This blank surface was used as a reference cell throughout the experiment, and served to correct for both non-specific binding and certain housekeeping artifacts.
After baseline stabilization, solutions of the Tn3 clone 5E5 (Table 7) were injected over both the captured ligand and control surfaces. Between injections, the Fc-capture surface was regenerated with two 1 min. injections of 10 mM Gly, pH2.
Several buffer and control protein injections were also interspersed throughout the injection series. Later, these buffer injections were used, along with the reference cell data, to correct the raw data sets for injection artifacts and/or non-specific ‘binding’ through a technique commonly referred to as “double-referencing.” (Myszka, D. G. (1999) J. Mol. Recognit. 12, pp. 279-284). Sensorgram overlays of the fully corrected data were generated using the BIAevaluation 4.1 software (BIAcore, Inc, Uppsala, Sweden). The affinity of 5E5 for binding to TRAIL-R2 was calculated by measuring the kₒₙ and koff.values in the BIAevaluation software for the sensorgram shown in FIG. 13.

The target in assay [5] is SYNAGIS®. The assay is described as follows: SPR (BIAcore 3000), SYNAGIS® amine-coupled to the chip, equilibrium binding of SynBP01.
SYNAGIS®, sequence (VH, as listed by the source, chain 1 of 2): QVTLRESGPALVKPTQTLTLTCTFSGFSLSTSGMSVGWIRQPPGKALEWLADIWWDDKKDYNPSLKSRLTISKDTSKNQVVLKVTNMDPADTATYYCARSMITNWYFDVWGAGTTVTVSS
SYNAGIS®, sequence (VL, as listed by the source, chain 2 of 2): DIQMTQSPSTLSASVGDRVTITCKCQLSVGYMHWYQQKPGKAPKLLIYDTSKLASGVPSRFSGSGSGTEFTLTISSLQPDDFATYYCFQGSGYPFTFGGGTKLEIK

T1 sequence (O14763 54-182 limits assumed): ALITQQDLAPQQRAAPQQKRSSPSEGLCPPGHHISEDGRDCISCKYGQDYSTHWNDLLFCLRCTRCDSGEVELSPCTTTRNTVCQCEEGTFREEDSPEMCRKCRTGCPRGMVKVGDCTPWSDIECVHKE

B1: D1 (designed binder)
chain: IEVKDVTDTTALITWSPGERIWMFTGCELTYGIKDVPGDRTTIDLTEDENQYSIGNLKPDTEYEVSLICPNYERISNPAKETFTT
With B1, the binding result in assay [1] is “no binding”.

B2: SynBP01-Fc (Fc fusion)
chain: IEVKDVTDTTALITWSPPSVLVGYTIELTYGIKDVPGDRTTIDLTEDENQYSIGNLKPDTEYEVSLISVTEFGRRRSKETFTT
notes: Chimeric fusion made in 293EBNA cells from pOE-SynBP01; Called bivalent; also called SynBP01 scaffold fused to an Fc region; not shown: CH2 and CH3 domains of IgG1 Fc from the pOE-Fc vector
Regarding B2, the “fold increase in total response units compared to SynBP01” value with SYNAGIS® [2] is approximately 6 fold.

B3: D1-Cκ/D1-IGHG1 (other)
light: IEVKDVTDTTALITWSPGERIWMFTGCELTYGIKDVPGDRTTIDLTEDENQYSIGNLKPDTEYEVSLICPNYERISNPAKETFTTGGGTPT
heavy: IEVKDVTDTTALITWSPGERIWMFTGCELTYGIKDVPGDRTTIDLTEDENQYSIGNLKPDTEYEVSLICPNYERISNPAKETFTTGGGTPT
notes: Control two chain tetravalent construct of D1; not shown: human C-kappa region (constant region of an antibody kappa light chain); heavy chain constant region of human IgG1 (IGHG1)
Take B3: the binding result in assay [3] is on record as “no binding”.

B4: 5E5 (designed binder)
chain: IEVKDVTDTTALITWSLAPGYRLGCELTYGIKDVPGDRTTIDLTEDENQYSIGNLKPDTEYEVSLICVKLCMRGNPAKETFTT
notes: also called TRAIL-R2 specific clone 5E5
B4: the dissociation constant (Kd) in assay [4] was approximately 0.7 µM.

B5: D1-Fc (Fc fusion)
chain: IEVKDVTDTTALITWSPGERIWMFTGCELTYGIKDVPGDRTTIDLTEDENQYSIGNLKPDTEYEVSLICPNYERISNPAKETFTTGA
notes: not shown: hinge and Fc region of human IgG1
Take B5: the binding result in assay [3] is on record as “no binding”.

B6: SynBP01 (designed binder)
chain: AAIEVKDVTDTTALITWSPPSVLVGYTIELTYGIKDVPGDRTTIDLTEDENQYSIGNLKPDTEYEVSLISVTEFGRRRSKETFTTGGGTLEHHHHHH
notes: also called SYNAGIS® specific Tn3 scaffold
For the molecule B6, the Kd in the assay with SYNAGIS® [5] is 16 µM.

The Kd is a measure of binding affinity in units of concentration.
